Reference: patent US20170267780A1

What was measured:
[1] = molecular target: Recombinant human FcRn (human) (UniProt P55899); experiment: SPR (ProteOn), IgG immobilised, pH 6.0
[2] = molecular target: Recombinant human FcRn (human) (UniProt P55899); experiment: SPR (ProteOn), IgG immobilised, pH 7.4
C1q = C1q (UniProt P02745); experiment: effector binding, values nM, method not stated
Fcγ IIIa (158 F) = Fcγ IIIa (158 F) (UniProt P08637); experiment: effector binding, values nM, method not stated
Fcγ IIIa (158 F), sequence (P08637 17-208 limits assumed): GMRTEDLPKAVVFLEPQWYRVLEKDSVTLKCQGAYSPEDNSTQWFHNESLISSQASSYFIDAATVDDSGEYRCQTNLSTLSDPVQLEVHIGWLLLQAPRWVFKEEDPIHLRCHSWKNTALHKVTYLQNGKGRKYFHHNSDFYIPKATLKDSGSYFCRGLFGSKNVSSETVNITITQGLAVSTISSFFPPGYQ

Fcγ IIIa (158 V) = Fcγ IIIa (158 V) (UniProt P08637); experiment: effector binding, values nM, method not stated
Fcγ IIIa (158 V), sequence (P08637 17-208 F176V limits assumed): as the sequence (P08637 17-208 limits assumed) above, with F160V counted along it

Fcγ IIb = Fcγ IIb (UniProt P31994); experiment: effector binding, values nM, method not stated
Fcγ IIb, sequence (P31994 43-217 limits assumed): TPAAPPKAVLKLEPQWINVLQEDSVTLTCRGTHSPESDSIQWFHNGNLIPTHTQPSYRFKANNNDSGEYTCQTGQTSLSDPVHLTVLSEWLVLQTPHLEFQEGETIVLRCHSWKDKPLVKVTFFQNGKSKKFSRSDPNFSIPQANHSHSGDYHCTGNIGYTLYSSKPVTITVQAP

[3] = molecular target: Cyno FcRn (cynomolgus monkey) (UniProt Q8SPV9); experiment: SPR (ProteOn), IgG immobilised, cyno FcRn, pH 6.0
Cyno FcRn (cynomolgus monkey), sequence (Q8SPV9 24-297 limits assumed, chain 1 of 2): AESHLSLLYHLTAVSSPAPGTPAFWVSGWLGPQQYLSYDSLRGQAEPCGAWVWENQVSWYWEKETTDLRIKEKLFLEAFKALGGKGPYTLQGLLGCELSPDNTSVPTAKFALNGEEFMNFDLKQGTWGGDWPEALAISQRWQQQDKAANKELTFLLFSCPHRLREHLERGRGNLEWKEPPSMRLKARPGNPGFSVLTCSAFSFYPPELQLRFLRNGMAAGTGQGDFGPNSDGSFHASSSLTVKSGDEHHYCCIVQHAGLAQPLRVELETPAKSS
Cyno FcRn (cynomolgus monkey), sequence (Q8SPW0 21-119 limits assumed, chain 2 of 2, further chain): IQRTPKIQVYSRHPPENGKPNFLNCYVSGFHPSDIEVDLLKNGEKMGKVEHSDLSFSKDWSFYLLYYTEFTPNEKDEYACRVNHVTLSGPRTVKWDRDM

[4] = molecular target: Cyno FcRn (cynomolgus monkey) (UniProt Q8SPV9); experiment: SPR (ProteOn), IgG immobilised, cyno FcRn, pH 7.4
Fcγ IIa = Fcγ IIa (UniProt P12318); experiment: effector binding, values nM, method not stated
Fcγ IIa, sequence (P12318 34-217 limits assumed): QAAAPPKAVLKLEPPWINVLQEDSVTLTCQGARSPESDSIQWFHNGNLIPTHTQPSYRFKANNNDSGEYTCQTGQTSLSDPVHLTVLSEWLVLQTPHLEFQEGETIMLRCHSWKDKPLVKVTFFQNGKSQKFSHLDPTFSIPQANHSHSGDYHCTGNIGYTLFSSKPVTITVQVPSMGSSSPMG

Fcγ RIa = Fcγ RIa (UniProt P12314); experiment: effector binding, values nM, method not stated
Fcγ RIa, sequence (P12314 16-288 limits assumed): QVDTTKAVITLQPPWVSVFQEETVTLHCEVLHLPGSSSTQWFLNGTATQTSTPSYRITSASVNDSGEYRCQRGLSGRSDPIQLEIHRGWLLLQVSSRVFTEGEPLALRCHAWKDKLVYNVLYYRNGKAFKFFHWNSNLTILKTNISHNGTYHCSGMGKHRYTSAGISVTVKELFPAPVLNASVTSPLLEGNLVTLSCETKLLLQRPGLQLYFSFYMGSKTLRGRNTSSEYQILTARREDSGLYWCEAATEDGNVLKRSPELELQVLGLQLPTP

C1q, sequence (P02745 23-245, chain 1 of 3): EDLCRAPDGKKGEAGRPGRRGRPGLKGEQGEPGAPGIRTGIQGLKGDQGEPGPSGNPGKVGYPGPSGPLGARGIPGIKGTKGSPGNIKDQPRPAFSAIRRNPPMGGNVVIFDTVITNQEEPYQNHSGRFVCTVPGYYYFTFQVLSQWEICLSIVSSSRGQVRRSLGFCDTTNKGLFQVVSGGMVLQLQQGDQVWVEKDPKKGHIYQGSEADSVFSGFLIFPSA
C1q, sequence (P02746 28-253, chain 2 of 3, further chain): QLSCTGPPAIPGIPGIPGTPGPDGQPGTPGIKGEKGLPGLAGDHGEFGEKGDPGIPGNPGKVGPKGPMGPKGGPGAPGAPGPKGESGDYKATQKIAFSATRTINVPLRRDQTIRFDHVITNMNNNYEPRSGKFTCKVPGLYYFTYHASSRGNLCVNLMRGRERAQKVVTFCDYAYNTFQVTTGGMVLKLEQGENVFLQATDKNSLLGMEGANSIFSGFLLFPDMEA
C1q, sequence (P02747 29-245, chain 3 of 3, further chain): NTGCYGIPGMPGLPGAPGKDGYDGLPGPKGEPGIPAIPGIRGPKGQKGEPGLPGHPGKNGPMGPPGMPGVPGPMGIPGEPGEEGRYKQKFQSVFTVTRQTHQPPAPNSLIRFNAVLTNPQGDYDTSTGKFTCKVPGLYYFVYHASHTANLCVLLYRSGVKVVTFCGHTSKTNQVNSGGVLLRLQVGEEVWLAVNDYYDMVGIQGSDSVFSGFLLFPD

Row | Kd [1] [nM] | Kd [2] [nM] | Kd (C1q) [nM] | Kd (Fcγ IIIa (158 F)) [nM] | Kd (Fcγ IIIa (158 V)) [nM] | Kd (Fcγ IIb) [nM] | Kd [3] [nM] | Kd [4] [nM] | Kd (Fcγ IIa) [nM] | Kd (Fcγ RIa) [nM] | Substance
1 | 215 | 5800 | – | – | – | – | – | – | – | – | HB20.3 (anti-CD20) IgG1 YTE (antibody)
2 | 314 | – | 482 | 6060 | 245 | 1950 | 275 | 8000 | – | – | Motavizumab YTE (antibody)
3 | – | – | 328 | 4140 | – | – | 1920 | – | 506 | 45.8 | Wildtype Motavizumab (antibody)
